The source of these data is article PMC9605714.

The target of this assay is SUMOylated Hsp82p (Hsp82p^K178C crosslinked with BMOE to Smt3p^Cys at position 178) (S. cerevisiae) (UniProt P02829).

B1: 6xHisMyc-tagged Aha1p (natural protein)
chain: MVVNNPNNWHWVDKNCIGWAKEYFKQKLVGVEAGSVKDKKYAKIKSVSSIEGDCEVNQRKGKVISLFDLKITVLIEGHVDSKDGSALPFEGSINVPEVAFDSEASSYQFDISIFKETSELSEAKPLIRSELLPKLRQIFQQFGKDLLATHGNDIQVPESQVKSNYTRGNQKSSFTEIKDSASKPKKNALPSSTSTSAPVSSTNKVPQNGSGNSTSIYLEPTFNVPSSELYETFLDKQRILAWTRSAQFFNSGPKLETKEKFELFGGNVISELVSCEKDKKLVFHWKLKDWSAPFNSTIEMTFHESQEFHETKLQVKWTGIPVGEEDRVRANFEEYYVRSIKLTFGFGAVL
With B1, the apparent binding affinity (K app) from Aha1p titration into ATPase reactions of 1 uM Hsp82p form (PK/LDH regenerating system) was 0.31 µM.
